From article PMC5576569 (Journal of molecular biology, 2017)

Target: the molecule itself
Test: AUC

B1: SSB-ΔL, linkerless variant of E. coli SSB (SSBΔ115–168) (natural protein, UniProt P0AGE0 2-178, looked up)
chain: ASRGVNKVILVGNLGQDPEVRYMPNGGAVANITLATSESWRDKATGEMKEQTEWHRVVLFGKLAEVASEYLRKGSQVYIEGQLRTRKWTDQSGQDRYTTEVVVNVGGTMQMLGGMDFDDDIPF
In the case of B1, the “stoichiometry N” value is reported as 4.
